The values that follow come from US20080056997A1.

The test addresses human domain D of tenascin C (TnC-D) (human) (UniProt P24821). Put plainly: method not stated in the sentence (ELISA-positive clone, further characterization). Background: An ELISA detects its analyte on a solid surface through an enzyme-linked reagent.
Sequence of UniProt P24821 (P24821 1622-1711): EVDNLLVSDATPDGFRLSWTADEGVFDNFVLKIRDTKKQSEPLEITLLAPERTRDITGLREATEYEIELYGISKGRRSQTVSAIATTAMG

B1: scFv(P12) (scFv, part only; not given: VH-VL peptide linker, part only)
scFv, part: EVQLVESGGGLVQPGGSLRLSCAASGFTFGQYSMSWVRQAPGKGLEWVSAITGTGGETYYADSVEGRFTISRDNSKNTLYLQMNSLRAEDTAVYYCAKGRRIFDYWGQGTLVTVSRSSELTQDPAVSVALGQTVRITCQGDSLRRQPASWYQQKPGQAPVLVIYYKKLRPSGIPDRFSGSSSGNTASLTITGAQAEDEADYYCNSFSPKPKPVVFGGGTKLTVLG
B1 showed a factor of affinity improvement compared to scFv(D11) of 4.8 fold.
